Data on five molecules can be found in patent CN115124615A (SICHUAN YIAI TECH CO LTD, dated 2022).

B1: 纳米抗体N5 (VHH)
VHH: QVQLVESGGGPVQAGGSLRLSCAAAGSALSIYRMGWYRQAPGKQRELVAFITTGGSTDHIDSVKGRFTISRDNAKNTVYLQMNSLKPEDTAVYYCNSDPPWVLGADWGQGTQVTVSS
notes: also called R5
B2: 纳米抗体N3 (VHH)
VHH: QVQLVESGGGLVQAGGSLRLSCRASGSVFTMGWHRQAPGNGREFVASITRDGNANYKGSVKDRFTISRDNGKNTLYLQMNSLKPEDTAVYYCIDYNTSTWGQGTQVTVSS
notes: also called R3
B3: 纳米抗体N22 (VHH)
VHH: QVQLVESGGGLVQAGGSLRLSCRASGTVFNMGWHRQAPGQQREFVASISHDGRTNYAGSVKGRFTISRDNTKNTLYLQMNSLKPEDTAVYYCIDYHTSLWGQGTQVTVSS
notes: also called R22
B4: 纳米抗体N1 (VHH)
VHH: QVQLVESGGGLVQPGGSLRLSCTASGSGFSNNNMAWYRQAPGKAREWVAAVSSSGNTNYAASAKGRFTISRDNAKNTVYLQMSSLKPEDTAVYYCYAVAPEGGDSWGQGTQVTVSS
notes: also called R1
B5: 纳米抗体N10 (VHH)
VHH: QVQLVESGGGLVEAGGSLRLSCAASGIIFSINNMAWYRQAPGKPREWVAAVSSSGNTNYAASVKGRFTISRDNAKNTLYLQMSSLKPEDTAVYYCYAVAPEGGDSWGQGTQVTVSS
notes: also called R10

The target of one assay is 新冠病毒刺突蛋白(S蛋白) (SARS-CoV-2, UniProt P0DTC2 14-1213). As to the kind of experiment: cell-based or functional assay.
For the molecule B1, the “假病毒中和 IC50” value came to 0.023 µg/mL.

The target in another assay is T1, SARS-CoV2病毒表面SPIKE蛋白的RBD结构域 (SARS-CoV-2, UniProt P0DTC2 319-541).
T1 construct: domain: RBD结构域
The experiment in a line: SPR (Biacore).
B2 had a Kd of 1.4 nM.

In the case of B3, binding was put at a Kd of 0.19 nM.

Molecule B1 yielded a Kd of 5.3 nM. This Kd is about 28-fold higher than that of the molecule before.

As for B4, the Kd stood at 0.56 nM.

Take B5: the Kd was determined as 0.59 nM.
